Experimental data: paper PMC5218534, “Structural and biochemical analyses of the DEAD-box ATPase Sub2 in association with THO or Yra1” (eLife, 2017)
Blank lines part the entries; values can stand above or below the molecule they belong to.

What was measured:
Sub2 (full-length) = molecular target: T1, Sub2 (full-length) (Saccharomyces cerevisiae, UniProt Q07478); assay: NADH enzyme-coupled ATPase assay; format: biochemical; details: 1 mM ATP; 10 µM poly(U) 20-mer RNA; 2 mM MgCl2, pH 7.0, 37 °C; no THO or Yra1
T1 construct: full-length, expressed in E. coli BL21-CodonPlus(DE3)-RIL with N-terminal GST tag removed by TEV
T1 sequence (Q07478 1-446): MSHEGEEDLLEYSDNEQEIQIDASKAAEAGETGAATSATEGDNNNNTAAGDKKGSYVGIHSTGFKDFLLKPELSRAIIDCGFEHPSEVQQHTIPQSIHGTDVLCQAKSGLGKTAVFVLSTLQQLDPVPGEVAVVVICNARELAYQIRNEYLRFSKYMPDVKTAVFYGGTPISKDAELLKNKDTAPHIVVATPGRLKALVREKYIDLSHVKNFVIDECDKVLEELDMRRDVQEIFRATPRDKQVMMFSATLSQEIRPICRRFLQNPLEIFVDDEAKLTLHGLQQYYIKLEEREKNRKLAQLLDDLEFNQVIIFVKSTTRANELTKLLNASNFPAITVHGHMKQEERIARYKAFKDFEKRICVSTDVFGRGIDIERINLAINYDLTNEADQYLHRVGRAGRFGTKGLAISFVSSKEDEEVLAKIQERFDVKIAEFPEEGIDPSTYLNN

Sub2 (62-446);Yra1-C* = molecular target: T2, Sub2 (62-446);Yra1-C* (Saccharomyces cerevisiae?;Saccharomyces …, UniProt Q07478;Q12159 62-446;200-226, |); assay: X-ray crystallography 2.6 A; ADP-BeF3; EMSA: 20 nM RNA, 20 mM HEPES pH 7.0, 100 mM NaCl, 1 mM TCEP, 2 mM MgCl2, 5% glycerol, 0.5 U/ul SUPERase-In, 1 mM nucleotide as indicated; room temperature, 10 min; 5% native PAGE, 45 mM Tris-borate; details: protein: recombinant;recombinant; tags: N-terminal GST removed by TEV;N-terminal GST removed by TEV; copies: 1;1; single strand
T2 sequence 1: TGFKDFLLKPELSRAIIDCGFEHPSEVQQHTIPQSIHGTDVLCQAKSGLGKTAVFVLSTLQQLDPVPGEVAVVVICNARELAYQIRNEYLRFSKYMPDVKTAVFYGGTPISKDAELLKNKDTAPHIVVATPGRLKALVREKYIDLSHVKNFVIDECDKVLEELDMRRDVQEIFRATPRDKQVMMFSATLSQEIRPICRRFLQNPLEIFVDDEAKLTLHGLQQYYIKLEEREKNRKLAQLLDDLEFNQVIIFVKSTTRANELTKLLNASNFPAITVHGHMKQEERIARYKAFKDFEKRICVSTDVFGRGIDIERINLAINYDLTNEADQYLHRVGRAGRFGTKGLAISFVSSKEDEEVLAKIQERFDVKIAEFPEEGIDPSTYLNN
T2 sequence 2: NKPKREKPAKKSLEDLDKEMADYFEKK

[1] = molecular target: T3, DEAD-box ATPase Sub2, full length (S. cerevisiae, UniProt Q07478 1-446); assay: cell-based or functional assay
T3 sequence (looked up): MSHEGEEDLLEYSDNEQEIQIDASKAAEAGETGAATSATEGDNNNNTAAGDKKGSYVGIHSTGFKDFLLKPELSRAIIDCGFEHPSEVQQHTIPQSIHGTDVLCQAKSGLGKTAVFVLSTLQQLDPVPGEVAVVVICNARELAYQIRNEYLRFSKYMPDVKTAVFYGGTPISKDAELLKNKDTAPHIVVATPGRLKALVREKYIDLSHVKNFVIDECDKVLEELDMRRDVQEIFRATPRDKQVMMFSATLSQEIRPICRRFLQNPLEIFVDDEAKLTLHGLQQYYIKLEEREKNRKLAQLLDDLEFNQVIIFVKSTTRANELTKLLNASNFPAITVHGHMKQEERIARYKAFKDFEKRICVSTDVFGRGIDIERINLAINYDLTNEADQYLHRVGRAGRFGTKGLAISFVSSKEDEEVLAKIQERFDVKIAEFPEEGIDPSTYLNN

Sub2 = molecular target: T4, Sub2 (UniProt Q07478 1-446); assay: EMSA; 1 mM ATP-gamma-S, 2 mM MgCl2; EMSA: 20 nM RNA, 20 mM HEPES pH 7.0, 100 mM NaCl, 1 mM TCEP, 2 mM MgCl2, 5% glycerol, 0.5 U/ul SUPERase-In, 1 mM nucleotide as indicated; room temperature, 10 min; 5% native PAGE, 45 mM Tris-borate; details: protein: recombinant; tags: N-terminal GST removed by TEV; label: 5' Alexa488; single strand
T4 sequence: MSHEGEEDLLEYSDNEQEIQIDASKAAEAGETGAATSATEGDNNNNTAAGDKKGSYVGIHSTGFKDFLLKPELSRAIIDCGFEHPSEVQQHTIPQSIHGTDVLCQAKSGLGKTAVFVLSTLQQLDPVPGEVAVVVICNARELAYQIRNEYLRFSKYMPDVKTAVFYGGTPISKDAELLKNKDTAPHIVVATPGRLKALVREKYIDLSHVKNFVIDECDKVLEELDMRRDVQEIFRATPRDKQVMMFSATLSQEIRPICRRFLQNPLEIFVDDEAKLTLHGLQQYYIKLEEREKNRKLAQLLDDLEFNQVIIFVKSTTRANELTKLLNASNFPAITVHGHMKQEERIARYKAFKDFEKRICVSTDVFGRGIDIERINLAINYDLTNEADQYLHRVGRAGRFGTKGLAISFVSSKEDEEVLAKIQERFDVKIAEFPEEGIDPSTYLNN

Yra1-C = molecular target: T5, Yra1-C (UniProt Q12159 185-226); assay: EMSA; Yra1-C without Sub2; EMSA: 20 nM RNA, 20 mM HEPES pH 7.0, 100 mM NaCl, 1 mM TCEP, 2 mM MgCl2, 5% glycerol, 0.5 U/ul SUPERase-In, 1 mM nucleotide as indicated; room temperature, 10 min; 5% native PAGE, 45 mM Tris-borate; details: protein: recombinant; tags: N-terminal GST removed by TEV; label: 5' Alexa488; single strand
T5 chain: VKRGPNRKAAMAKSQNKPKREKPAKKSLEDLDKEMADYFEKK

Sub2;Yra1-C = molecular target: T6, Sub2;Yra1-C (Saccharomyces cerevisiae?;Saccharomyces …, UniProt Q07478;Q12159 1-446;185-226, |); assay: EMSA; 1 mM ATP-gamma-S, 2 mM MgCl2; Yra1-C promotes Sub2-RNA binding, trimeric complex; EMSA: 20 nM RNA, 20 mM HEPES pH 7.0, 100 mM NaCl, 1 mM TCEP, 2 mM MgCl2, 5% glycerol, 0.5 U/ul SUPERase-In, 1 mM nucleotide as indicated; room temperature, 10 min; 5% native PAGE, 45 mM Tris-borate; details: protein: recombinant;recombinant; tags: N-terminal GST removed by TEV;N-terminal GST removed by TEV; copies: 1;1; label: 5' Alexa488; single strand
T6 sequence 1: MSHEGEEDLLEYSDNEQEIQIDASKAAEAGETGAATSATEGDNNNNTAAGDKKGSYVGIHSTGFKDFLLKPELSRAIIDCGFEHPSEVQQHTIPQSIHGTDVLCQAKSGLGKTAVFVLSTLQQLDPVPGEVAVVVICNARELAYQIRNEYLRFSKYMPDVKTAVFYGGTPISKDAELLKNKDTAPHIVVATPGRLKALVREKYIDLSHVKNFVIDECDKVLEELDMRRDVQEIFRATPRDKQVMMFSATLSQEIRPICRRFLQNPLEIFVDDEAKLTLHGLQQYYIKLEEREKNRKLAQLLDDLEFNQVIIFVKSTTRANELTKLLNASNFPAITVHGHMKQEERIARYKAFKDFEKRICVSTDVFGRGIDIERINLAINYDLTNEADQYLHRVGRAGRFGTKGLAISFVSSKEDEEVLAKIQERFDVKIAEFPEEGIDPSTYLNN
T6 sequence 2: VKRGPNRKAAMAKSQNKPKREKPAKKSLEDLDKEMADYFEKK

Yra1 C-box = molecular target: T7, Yra1 C-box (UniProt Q12159 208-226); assay: EMSA; C-box without Sub2; EMSA: 20 nM RNA, 20 mM HEPES pH 7.0, 100 mM NaCl, 1 mM TCEP, 2 mM MgCl2, 5% glycerol, 0.5 U/ul SUPERase-In, 1 mM nucleotide as indicated; room temperature, 10 min; 5% native PAGE, 45 mM Tris-borate; details: label: 5' Alexa488; single strand
T7 chain: AKKSLEDLDKEMADYFEKK

[2] = molecular target: THO core complex (THO*) (S. cerevisiae | S. bayanus) (UniProt P53552)
Sub2 (a.a. 62-446) = molecular target: T8, Sub2 (a.a. 62-446) (S. cerevisiae, UniProt Q07478 62-446); assay: crystal structure; Sub2 (62-446), Yra1-C* and poly(U) 15-mer RNA mixed 1:1.2:1.2 with 2 mM MgCl2 and ADP•BeF3; sitting drop, 4 °C, 100 mM Bis-Tris pH 5.5, 20% PEG3350, 0.2 M ammonium acetate; 2.6 Å; details: both partners purified
T8 construct: source: E. coli BL21-CodonPlus(DE3)-RIL, purified (glutathione sepharose, TEV, mono Q, Superdex 200); not shown: GST, N-terminal, cleaved
T8 sequence (looked up): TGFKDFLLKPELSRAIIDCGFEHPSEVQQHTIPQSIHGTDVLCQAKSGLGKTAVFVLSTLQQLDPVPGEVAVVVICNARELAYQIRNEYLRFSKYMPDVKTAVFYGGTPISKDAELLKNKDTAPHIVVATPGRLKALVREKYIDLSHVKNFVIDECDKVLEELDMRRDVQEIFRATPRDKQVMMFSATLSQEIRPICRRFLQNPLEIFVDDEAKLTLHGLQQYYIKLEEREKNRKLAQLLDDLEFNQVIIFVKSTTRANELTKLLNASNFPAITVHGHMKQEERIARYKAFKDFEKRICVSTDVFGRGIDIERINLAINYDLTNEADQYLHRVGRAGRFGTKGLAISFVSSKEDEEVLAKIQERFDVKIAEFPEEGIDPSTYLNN

THO core complex (THO*) (S. cerevisiae | S. bayanus), sequence (P53552 whole entry, looked up, one chain of several): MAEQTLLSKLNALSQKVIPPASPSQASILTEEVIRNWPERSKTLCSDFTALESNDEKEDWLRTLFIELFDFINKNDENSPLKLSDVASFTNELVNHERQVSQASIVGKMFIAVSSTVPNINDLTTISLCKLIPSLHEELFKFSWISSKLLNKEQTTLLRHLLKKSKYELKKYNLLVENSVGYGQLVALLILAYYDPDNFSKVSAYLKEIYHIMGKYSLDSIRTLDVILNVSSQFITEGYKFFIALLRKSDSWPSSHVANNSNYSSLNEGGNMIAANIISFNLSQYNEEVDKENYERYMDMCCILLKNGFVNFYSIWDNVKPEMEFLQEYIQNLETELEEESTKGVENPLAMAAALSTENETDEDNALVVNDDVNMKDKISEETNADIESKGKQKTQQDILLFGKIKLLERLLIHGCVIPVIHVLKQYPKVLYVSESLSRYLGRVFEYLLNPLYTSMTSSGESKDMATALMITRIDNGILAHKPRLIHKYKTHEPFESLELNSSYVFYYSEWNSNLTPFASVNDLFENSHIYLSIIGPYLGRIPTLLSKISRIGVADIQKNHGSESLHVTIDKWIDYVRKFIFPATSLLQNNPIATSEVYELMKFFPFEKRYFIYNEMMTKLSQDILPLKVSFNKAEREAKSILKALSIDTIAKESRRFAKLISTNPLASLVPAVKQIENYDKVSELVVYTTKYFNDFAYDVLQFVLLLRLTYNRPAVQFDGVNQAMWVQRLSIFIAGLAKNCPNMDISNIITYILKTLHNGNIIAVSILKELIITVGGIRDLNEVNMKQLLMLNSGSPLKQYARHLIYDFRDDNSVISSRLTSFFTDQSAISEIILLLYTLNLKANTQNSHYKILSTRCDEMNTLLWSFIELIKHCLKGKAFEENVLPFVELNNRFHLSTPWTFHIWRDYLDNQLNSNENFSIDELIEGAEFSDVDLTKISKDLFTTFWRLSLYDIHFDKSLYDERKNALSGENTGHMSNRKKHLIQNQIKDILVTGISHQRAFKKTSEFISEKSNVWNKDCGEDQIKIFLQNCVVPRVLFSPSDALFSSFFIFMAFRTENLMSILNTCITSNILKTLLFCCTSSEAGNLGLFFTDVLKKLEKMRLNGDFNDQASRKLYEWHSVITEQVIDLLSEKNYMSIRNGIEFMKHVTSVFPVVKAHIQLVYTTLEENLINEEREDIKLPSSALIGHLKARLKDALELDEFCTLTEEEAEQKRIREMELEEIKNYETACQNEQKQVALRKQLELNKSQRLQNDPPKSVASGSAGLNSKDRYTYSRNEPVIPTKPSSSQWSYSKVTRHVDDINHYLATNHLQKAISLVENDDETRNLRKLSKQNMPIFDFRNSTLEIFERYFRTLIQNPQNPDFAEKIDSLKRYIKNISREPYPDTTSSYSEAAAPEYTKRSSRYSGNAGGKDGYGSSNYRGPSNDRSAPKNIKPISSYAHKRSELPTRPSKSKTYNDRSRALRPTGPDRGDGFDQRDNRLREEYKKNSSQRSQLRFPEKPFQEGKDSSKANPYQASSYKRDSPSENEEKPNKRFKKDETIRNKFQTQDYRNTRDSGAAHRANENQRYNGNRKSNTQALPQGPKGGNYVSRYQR

- stimulation of the Sub2 ATPase activity by Yra1-C (NADH-coupled ATPase assay, 2 μM Sub2, 10 μM Yra1, 10 μM poly(U) RNA, 37 °C) [1]: ~2 fold
Molecule: VKRGPNRKAAMAKSQNKPKREKPAKKSLEDLDKEMADYFEKK (domain or fragment, S. cerevisiae, UniProt Q12159 185-226, looked up) [C-terminal fragment of Yra1, Yra1-C (a.a. 185-226)]

- stimulation of the Sub2 ATPase activity by THO* (NADH-coupled ATPase assay, 2 μM Sub2, 2 μM THO, 10 μM poly(U) RNA, 37 °C) [2]: 3.5 fold
B1: DEAD-box ATPase Sub2, full length (enzyme)
chain: MSHEGEEDLLEYSDNEQEIQIDASKAAEAGETGAATSATEGDNNNNTAAGDKKGSYVGIHSTGFKDFLLKPELSRAIIDCGFEHPSEVQQHTIPQSIHGTDVLCQAKSGLGKTAVFVLSTLQQLDPVPGEVAVVVICNARELAYQIRNEYLRFSKYMPDVKTAVFYGGTPISKDAELLKNKDTAPHIVVATPGRLKALVREKYIDLSHVKNFVIDECDKVLEELDMRRDVQEIFRATPRDKQVMMFSATLSQEIRPICRRFLQNPLEIFVDDEAKLTLHGLQQYYIKLEEREKNRKLAQLLDDLEFNQVIIFVKSTTRANELTKLLNASNFPAITVHGHMKQEERIARYKAFKDFEKRICVSTDVFGRGIDIERINLAINYDLTNEADQYLHRVGRAGRFGTKGLAISFVSSKEDEEVLAKIQERFDVKIAEFPEEGIDPSTYLNN

- binding result (Sub2 (a.a. 62-446)): binds
B2: truncated Yra1-C (Yra1-C*, a.a. 200-226) (domain or fragment, S. cerevisiae, UniProt Q12159 200-226, looked up)
chain: NKPKREKPAKKSLEDLDKEMADYFEKK
notes: source: E. coli BL21-CodonPlus(DE3)-RIL, purified (glutathione sepharose, TEV, mono S, Superdex 200); not shown: GST, N-terminal, cleaved

More lines, now with the values behind:

Molecule: Nc1ncnc2c1ncn2[C@@H]1O[C@H](COP(=O)(O)OP(=O)(O)OP(=O)(O)O)[C@@H](O)[C@H]1O [ATP]
- NADH enzyme-coupled ATPase assay (Sub2 (full-length)): Sub2 ATPase activity (mole of ADP produced per second per mole of Sub2)

Molecule: UUUUUUUUUUUUUUU (ssRNA) [poly(U) 15-mer RNA]
- binding result (Sub2 (62-446);Yra1-C*): binds

Molecule: UUUUUUUUUUUUUUUUUUUU (ssRNA) [poly(U) 20-mer RNA]
- binding result (Sub2): binds
- binding result (Yra1-C): binds
- binding result (Sub2;Yra1-C): binds
- binding result (Yra1 C-box): no binding
